Experimental data published in patent US7847064B2, “Methods and compositions for regulating gene expression in plant cells” (Donald Danforth Plant Science Center, priority 2004, dated 2010).

Legend:
[1] = system: non-transgenic BY-2 protoplasts; experiment: GUS activity of Box II/CaMV 35S chimeric promoters in non-transgenic BY-2 protoplasts; format: cell-based, tobacco; conditions: for increase in expression level above the construct without Box II: versus p-48CaMV and p-90CaMV respectively, normalized against GFP; for stimulation of gene expression versus the construct without Box II: Box II at 7 nucleotides from the TATA box plus multiples of 0.5 turns of DNA helix
Excerpt: Specifically, the Box II element was fused to the 5′ end of the chimeric promoters with a space of 7 nucleotides from the TATA box plus 1, 1.5, 3.0, 3.5, 5.0 and 5.5 “turns of DNA helix” (one turn=10.4 base pairs). The chimeric promoters were then inserted into a cassette with the uidA coding sequencing and Nos terminator.
Construction of Plasmids Comprising the Box II Element and Different Lengths of the CaMV 35S Promoter—To construct Box II and CaMV 35S chimeric promoters, the Box II element was introduced into CaMV 35S promoter sequences of different lengths through PCR reactions using Pfu DNA polymerase (Stratagen Systems, Kirkland, Wis.). Forward primers for the PCR reactions were designed to have a HindIII restriction site, followed by the Box II sequence, which was followed by part of the 5′ CaMV promoter at desired positions (see FIG. 12 and Table 2 for specific primer sequences). The GUS 3′ primer (SEQ ID NO:36) was used as reverse primer for all reactions.
The p35S:GUS plasmid was used as template in the foregoing reactions. In the p35S:GUS plasmid, a NcoI restriction site was located between the CaMV 35S promoter and the GUS coding sequence. Thus, a NcoI site was present in all PCR products. The PCR products were restricted with HindIII/NcoI and cloned into a pE:GUS vector to replace the E promoter through the same set of restriction sites. The constructed plasmids containing the chimeric promoters labeled 1 through 6 in Table 2 were named p-1.0hBoxII−48CaMV:GUS, p-1.5hBoxII−53CaMV:GUS, p-3.0hBoxII−69CaMV:GUS, p-3.5hBoxII−74CaMV, p-5.0hBoxII−90CaMV:GUS, and p-5.5hBoxII−95CaMV:GUS, respectively. The controls for this set of plasmids were generated using primer sets 1.5h-53CaMV-c (SEQ ID NO:43)/GUS3′; −3.5h-74CaMV-c (SEQ ID NO:44)/GUS3′ and −5.5h-95CaMV-c (SEQ ID NO:45)/GUS3′, which products were cloned into pE:GUS with HindIII/NcoI to replace the E promoter. The derived plasmids/constructs were named p-53CaMV:GUS, p-74CaMV:GUS and p-95CaMV:GUS, respectively.
The foregoing constructs were then transfected into non-transgenic BY-2 protoplasts, and the resulting GUS activity determined.

Box IIm1 element = experiment: Electrophoretic mobility shift assay; format: binding; conditions: 100 ng purified protein, 32P-labeled Box IIm1 DNA probe
Method: The purified mutant proteins were then analyzed by SDS-PAGE to confirm that each protein was its expected size (FIG. 16(B)). To confirm that each of the mutant proteins bind to the DNA target, i.e., the Box II element and/or its operational derivatives, gel mobility shift assays were carried out with the purified recombinant proteins (FIG. 16(C)). The electrophoretic mobility shift assays were carried out essentially as described in Yin and Beachy (1995). 100 ng of proteins purified from the transformed E. coli were incubated with ^32P-labeled Box IIm1 DNA probe followed by electrophoresis in a 5% acrylamide gel (Yin et al., 1997) (FIG. 16(C)).

pBII-48Ca::GUS = experiment: Transactivation of pBII-48Ca::GUS by RF2a and RF2a mutants in BY-2 protoplasts; format: cell-based, tobacco; conditions: co-transfected with pBII-48Ca::GUS, 24 hours after electroporation, normalized with GFP
Method: The relative activity of RF2a and the RF2a mutants (described in Example 8) was then measured. First, a chimeric promoter was developed with a single copy of the Box II element fused to the 5′ end of a minimal CaMV 35S promoter comprising nucleotides −48 to +8 (SEQ ID NO:66). The chimeric promoter was ligated to the uidA coding sequence to create the reporter pBII-48Ca::GUS.
To analyze the function of the several domains of RF2a, effectors were created by inserting coding sequences of RF2a or the mutants of RF2a (described in Example 8) downstream of the enhanced CaMV 35S promoter in the pMON999 vector (a gift from Monsanto Company, St. Louis, Mo.). The resultant constructs, p35S::RF2a, p35S::RF2a-ΔP, p35S::RF2a-ΔQ, p35S::RF2a-ΔPΔA, p35S::RF2a-ΔPΔQ and p35S::RF2a-3Δ, were co-transfected into BY-2 protoplasts with pBII-48Ca::GUS (FIG. 17(A)). Plasmid pCat-GFP, in which the GFP gene was driven by CaMV 35S promoter, was co-introduced to serve as an internal control. The following describes, in greater detail, the construction of these vectors and the methods employed in transfecting the same into BY-2 protoplasts.
Plasmids for protoplast transfection—The coding sequences for mutants of RF2a were released from pET28a-derived plasmids and cloned into the plant expression vector pMON999 (a gift from Monsanto Company, St. Louis, Mo.) to place each gene downstream of an enhanced CaMV 35S promoter, followed by a nopaline synthase terminator sequence. The resulting effector constructs were named p35S::RF2a, p35S::RF2a-ΔP, p35S::RF2a-ΔQ, p35S::RF2a-ΔPΔA, p35S::RF2a-ΔPΔQ and p35S::RF2a-3Δ. The reporter gene construct, pBII-48Ca::GUS, was built using PCR to introduce the Box II element into a minimal CaMV 35S promoter comprising nucleotides −48 to +8 with primers BII-48Ca 5′ (SEQ ID NO:53) (which contained the Box II element) and GUS 3′ (SEQ ID NO:36) using a p35S:GUS plasmid as template. The PCR product was restricted with HindIII and NcoI, and the resulting fragment was inserted into p35S::GUS to replace the original 35S promoter.
Transfection of tobacco BY-2 protoplasts—The protoplasts were isolated from tobacco cell line BY-2 as described by Watanabe et al. (1987). Approximately one million protoplasts were transfected by electroporation with 20 μg of effector construct DNA, 15 μg of herring sperm DNA, 2.5 μg of reporter gene construct DNA, and 15 μg of pCat-GFP DNA. In samples with reporter gene alone, the total amount of DNA was adjusted by adding 20 μg of herring sperm carrier DNA. The electroporation parameters used were 300 V and 250 microfarads with the Bio-Rad electroporation system (Bio-Rad Laboratories, Hercules, Calif.). Protoplast samples were cultured in Murashige and Skoog medium with 0.4 M mannitol, pH 5.8, at 28° C. The protoplasts were collected 24 hours after electroporation.

[2] = system: Nicotiana tabacum cv. Xanthi NN; experiment: Phenotype of transgenic tobacco plants overexpressing RF2a or RF2a mutants; format: in vivo; conditions: CaMV 35S promoter driven, T1 generation, greenhouse
Excerpt: (Yin et al., 1997; Petruccelli et al., 2001). […] Fifteen or more independent transgenic tobacco lines were developed with the constructs described below through Agrobacterium-mediated transformation.
Plasmids for Agrobacterium-mediated transformation—The fusion genes described above relating to the plant expression constructs comprising RF2a deletion mutants were released from pMON999-derived plasmids using NotI (blunted) and cloned into the binary vector pGA-E::GUS (Petruccelli et al., 2001) using the blunt HindIII site (downstream of a CaMV 35S promoter sequence). The final plasmids were named pGA-E::GUS/P-35S::ΔP, pGA-E::GUS/P-35S::ΔQ, pGA-E::GUS/P-35S::ΔPΔA and pGA-E::GUS/P-35S::ΔPΔQ. A plasmid encoding full-length RF2a, p35S::RF2a, was also constructed using the methods described herein.
Tobacco transformation—the plasmids described above were introduced into Agrobacterium tumefaciens strain LBA4404 and used for tobacco transformation. Leaf discs from Nicotiana tabacum cv. Xanthi NN were transformed with the various plasmids following the protocol of Horsch et al. (1988). At least 15 independent transgenic lines were produced with each gene construct. Transgenic plants were self-fertilized, and T1 seeds were collected. The T1 seeds were germinated on Murashige and Skoog medium (Murashige and Skoog, 1962) with kanamycin (100 mg/L) selection, and Kan^r seedlings were grown in a greenhouse for observation.
The phenotype caused by 35S::RF2a-ΔPΔA was similar to, but less severe than, the phenotype caused by 35S::RF2a-3Δ. […] (FIG. 19(C)).

“p1.0hBoxII−48CaMV: Box II fused to CaMV 35S promoter, 7 nucleotides from TATA box plus 1 turn of DNA helix (DNA TGATCAAAGCTTCCAGTGTGCCCCTGGTCGCAAGACCCTTCCTC; listed as DNA, chemistry not given here)” was tested, and the “increase in expression level above the construct without Box II” value [1] was 6.9 fold.

With “p5.0hBoxII−90CaMV: Box II fused to CaMV 35S promoter, 7 nucleotides from TATA box plus 5.0 turns (DNA TGATCAAAGCTTCCAGTGTGCCCCTGGATCTCCACTGACGTAAG; listed as DNA, chemistry not given here)” the “increase in expression level above the construct without Box II” value [1] was 4.7 fold.

For “p-1.5hBox II−53CaMV: Box II fused to CaMV 35S promoter, 7 nucleotides from TATA box plus 1.5 turns (DNA TGATCAAAGCTTCCAGTGTGCCCCTGGATCCTTCGCAAGACCCT; listed as DNA, chemistry not given here)”, the “stimulation of gene expression versus the construct without Box II” value [1] was “much less or no stimulation of gene expression”.

With “p-3.5hBox II−74CaMV: Box II fused to CaMV 35S promoter, 7 nucleotides from TATA box plus 3.5 turns (DNA TGATCAAAGCTTCCAGTGTGCCCCTGGGGGATGACGCACAATCC; listed as DNA, chemistry not given here)” the “stimulation of gene expression versus the construct without Box II” value [1] was “much less or no stimulation of gene expression”.

For “p-5.5hBox II−95CaMV: Box II fused to CaMV 35S promoter, 7 nucleotides from TATA box plus 5.5 turns (DNA TGATCAAAGCTTCCAGTGTGCCCCTGGGTGATATCTCCACTGAC; listed as DNA, chemistry not given here)”, the “stimulation of gene expression versus the construct without Box II” value [1] was “much less or no stimulation of gene expression”.

B1: RF2a-ΔQ: RF2a mutant, glutamine-rich domain removed, SEQ ID NO:69 (protein)
chain: MNREKSPIPGDGGDGLPPQATRRAGPPAAAAAAEYDISRMPDFPTRNPGHRRAHSEILSLPEDLDLCAAGGGDGPSLSDENDEELFSMFLDVEKLNSTCGASSEAEAESSSAAAHGARPKHQHSLSMDESMSIKAEELVGASPGTEGMSSAEAKKAVSAVKLAELALVDPKRAKRIWANRQSAARSKERKMRYIAELERKVQTLQTEATTLSAQLALLQRDTSGLTTENSELKLRLQTMEQQVHLQDALNDTLKSEVQRLKVATGQMANGGGMMMNFGGMPHQ
modifications: This sequence was artificially derived and/or created by the inventors.
With B1 the “binding in gel mobility shift assay” value (Box IIm1 element) was “bind to the Box IIm1 element”, the “activation function (relative GUS activity)” value (pBII-48Ca::GUS) was “greater than that of full-length RF2a” and the “phenotype of transgenic tobacco plants” value [2] was “did not exhibit abnormal phenotypes”.

B2: RF2a-ΔP: RF2a mutant, proline-rich domain removed, SEQ ID NO:68 (protein)
chain: MGHRRAHSEILSLPEDLDLCAAGGGDGPSLSDENDEELFSMFLDVEKLNSTCGASSEAEAESSSAAAHGARPKHQHSLSMDESMSIAEELVGASPGTEGMSSAEAKKAVSAVKLAELALVDPKRAKRIWANRQSAARSKERKMRYIAELERKVQTLQTEATTLSAQLALLQRDTSGLTTENSELKLRLQTMEQQVHLQDALNDTLKSEVQRLKVATGQMANGGGMMMNFGGMPHQFGGNQQMFQNNQAMQSMLAAHQLQQLQLHPQAQQQQVLHPQHQQQQPLHPLQAQQLQQAARDLKMKSPMGGQSQWGDGKSGSSGN
modifications: This sequence was artificially derived and/or created by the inventors.
With B2 the “binding in gel mobility shift assay” value (Box IIm1 element) was “bind to the Box IIm1 element”, the “activation function (relative GUS activity)” value (pBII-48Ca::GUS) was “greater than that of full-length RF2a” and the “phenotype of transgenic tobacco plants” value [2] was “did not exhibit abnormal phenotypes”.
